Reference: the RNAGym collection of RNA variant scans (doi:10.1021/acssynbio.7b00057)

B1: Pistol ribozyme (parent)
chain: GGGUCGUUGUUCCAUAAUCGCGUGGAUAUGGCACGCAAGUUUCUACCGGGCACCGUAAAUGUCCGACUGGAGCCGUUCGGGCGGCUAUAAACAGACCUCAGGCCCGAAGCGUGGCGGCACCUGCCGCCGGUGGUAAAAAAGAUCGGAAGAGCACACGUCU

Variants of: B1
Assay: aptazyme ON/OFF ratio, guanine; higher = stronger switching; co-transcriptional cleavage with and without guanine

Variant | aptazyme ON/OFF ratio
U7C U8C G9A U10A U11G C12G C13U | 1.14
U7C U8C G9A U10A U11G C12G C13G | 1.15
U7C U8C G9A U10A U11G C12G C13A | 1.13
U7C U8A U10C U11C C12A C13G | 1.27
U7C U8A U10C U11C C12A C13U | 1.27
U7C U8A U10C U11C C12A C13A | 1.18
U7C U8C G9A U10C U11C C12U C13A | 1.2
U7C U8C G9A U10C U11C C12U C13G | 1.24
U7C U8C G9A U10C U11C C12U C13U | 1.32
U7C U8A U10G C12G | 1.34
U7C U8A U10G C12U | 1.34
U7C U8A U10G C12A | 1.21
U7C U8C G9A U10G C12A C13A | 1.13
U7C U8C G9A U10G C12A C13G | 1.09
U7C U8C G9A U10G C12A C13U | 1.06
U7C U8C G9A U10C U11G C12U C13A | 1.45
U7C U8C G9A U10C U11G C12U C13G | 1.33
U7C U8C G9A U10C U11G C12U C13U | 1.23
U7C U8A U11G C12U C13U | 1.37
U7C U8A U11G C12U C13A | 1.29
U7C U8A U11G C12U C13G | 1.13
U7C U8C G9A U10A C12U C13G | 1.19
U7C U8C G9A U10A C12U C13A | 1.14
U7C U8C G9A U10A C12U C13U | 1.13

Variant | aptazyme ON/OFF ratio
U7C U8C G9A C12G C13G | 1.28
U7C U8C G9A C12G C13U | 1.24
U7C U8C G9A C12G C13A | 1.25
U7C U8A U11G C12U | 1.3
U7C U8A U11G C12A | 1.08
U7C U8A U11G C12G | 1.19
U7C U8C | 3.51
U7C U8C G9A U10G C12U | 1.46
U7C U8C G9A U10G C12G | 1.22
U7C U8C G9A U10G C12A | 1.21
U7C U8C G9A | 1.59
U7C U8C C12A C13G | 1.1
U7C U8C C12A C13A | 1.23
U7C U8C C12A C13U | 1.34
U7C U8A U10C U11A C13G | 1.15
U7C U8A U10C U11A C13A | 1.12
U7C U8A U10C U11A C13U | 1.16
U7C U8C G9A C12A C13G | 1.05
U7C U8C G9A C12A C13U | 1.42
U7C U8C G9A C12A C13A | 1.24
U7C U8A U10G U11C C13G | 1.08
U7C U8A U10G U11C C13U | 1.05
U7C U8A U10G U11C C13A | 1.08
U7C U8A U10G U11G C12G | 1.18

Variant | aptazyme ON/OFF ratio
U7C U8A U10G U11G C12A | 1.2
U7C U8A U10G U11G C12U | 1.28
U7C U8C G9A U10A C12G | 1.39
U7C U8C G9A U10A C12U | 1.69
U7C U8C G9A U10A C12A | 1.44
U7C U8A U10C U11C C12U C13G | 1.05
U7C U8A U10C U11C C12U C13A | 1.06
U7C U8A U10C U11C C12U C13U | 1.06
U7C U8C G9A U10C U11G C12G C13G | 1.41
U7C U8C G9A U10C U11G C12G C13A | 1.23
U7C U8C G9A U10C U11G C12G C13U | 1.17
U7C U8A U11A C12G | 1.09
U7C U8A U11A C12U | 1.16
U7C U8A U11A C12A | 1.28
U7C U8A U11G | 1.18
U7C U8A U11A | 1.13
U7C U8A U11C | 1.1
U7C U8A U10C U11G C12U | 1.17
U7C U8A U10C U11G C12G | 1.37
U7C U8A U10C U11G C12A | 1.1
U7C U8C G9A U10A U11C C12U C13A | 1.15
U7C U8C G9A U10A U11C C12U C13U | 1.13
U7C U8C G9A U10A U11C C12U C13G | 1.2
U7C U8C G9A C12A | 1.51

Variant | aptazyme ON/OFF ratio
U7C U8C G9A C12U | 1.72
U7C U8C G9A C12G | 1.41
U7C U8C G9A U10C U11C | 3.61
U7C U8C G9A U10C U11A | 1.8
U7C U8C G9A U10C U11G | 1.24
U7C U8C G9A U10A U11G C12A C13G | 1.09
U7C U8C G9A U10A U11G C12A C13A | 1.09
U7C U8C G9A U10A U11G C12A C13U | 1.16
U7C U8A U11G C12A C13U | 1.24
U7C U8A U11G C12A C13A | 1.11
U7C U8A U11G C12A C13G | 1.14
U7C U8C G9A U10C C12G C13G | 1.21
U7C U8C G9A U10C C12G C13U | 1.11
U7C U8C G9A U10C C12G C13A | 1.28
U7C U8A U10C U11G C12G C13U | 1.08
U7C U8A U10C U11G C12G C13A | 1.15
U7C U8A U10C U11G C12G C13G | 1.08
U7C U8C G9A U10C C12G | 1.33
U7C U8C G9A U10C C12A | 1.12
U7C U8C G9A U10C C12U | 2.28
U7C U8A U11C C12U C13U | 1.19
U7C U8A U11C C12U C13A | 1.31
U7C U8A U11C C12U C13G | 1.27
U7C U8A U10C C13U | 3.34

Variant | aptazyme ON/OFF ratio
U7C U8A U10C C13G | 1.22
U7C U8A U10C C13A | 1.09
U7C U8A U11G C12G C13A | 1.1
U7C U8A U11G C12G C13G | 1.13
U7C U8A U11G C12G C13U | 1.13
U7C U8A U10C U11G C13A | 1.17
U7C U8A U10C U11G C13G | 1.1
U7C U8A U10C U11G C13U | 1.16
U7C U8C G9A U10C C12A C13U | 1.21
U7C U8C G9A U10C C12A C13A | 1.52
U7C U8C G9A U10C C12A C13G | 1.2
U7C U8A U10G U11A C13A | 1.11
U7C U8A U10G U11A C13U | 1.07
U7C U8A U10G U11A C13G | 1.17
U7C U8C G9A U10C U11A C12U C13U | 1.3
U7C U8C G9A U10C U11A C12U C13A | 1.21
U7C U8C G9A U10C U11A C12U C13G | 1.27
U7C U8C G9A U10A C12G C13U | 1.16
U7C U8C G9A U10A C12G C13A | 1.11
U7C U8C G9A U10A C12G C13G | 1.27
U7C U8A U11C C12G C13A | 1.3
U7C U8A U11C C12G C13G | 1.26
U7C U8A U11C C12G C13U | 1.3
U7C U8A U11G C13G | 1.06

Variant | aptazyme ON/OFF ratio
U7C U8A U11G C13A | 1.14
U7C U8A U11G C13U | 1.19
U7C U8A U10C U11A C12U | 1.19
U7C U8A U10C U11A C12A | 1.27
U7C U8A U10C U11A C12G | 1.2
U7C U8C G9A U10C U11C C12A C13U | 1.31
U7C U8C G9A U10C U11C C12A C13A | 1.39
U7C U8C G9A U10C U11C C12A C13G | 1.17
U7C U8A U10C U11C C13A | 1.04
U7C U8A U10C U11C C13U | 1.01
U7C U8A U10C U11C C13G | 1.09
U7C U8C G9A U10C U11G C13G | 1.15
U7C U8C G9A U10C U11G C13A | 1.11
U7C U8C G9A U10C U11G C13U | 1.32
U7C U8A U10C U11G C12A C13G | 1.21
U7C U8A U10C U11G C12A C13U | 1.14
U7C U8A U10C U11G C12A C13A | 1.16
U7C U8A U11A C13U | 1.12
U7C U8A U11A C13G | 1.08
U7C U8A U11A C13A | 1.15
U7C U8A U10G U11A C12G C13A | 1.12
U7C U8A U10G U11A C12G C13U | 1.29
U7C U8A U10G U11A C12G C13G | 1.18
U7C U8C G9A C12U C13G | 1.27

Variant | aptazyme ON/OFF ratio
U7C U8C G9A C12U C13A | 1.27
U7C U8C G9A C12U C13U | 1.26
U7C U8C G9A U10C U11C C13U | 1.19
U7C U8C G9A U10C U11C C13A | 1.08
U7C U8C G9A U10C U11C C13G | 1.21
U7C U8C G9A C13A | 1.24
U7C U8C G9A C13G | 1.11
U7C U8C G9A C13U | 1.83
U7C U8C C13A | 1.21
U7C U8C C13G | 1.17
U7C U8C C13U | 1.56
U7C U8A U11C C12A | 1.35
U7C U8A U11C C12U | 1.44
U7C U8A U11C C12G | 1.36
U7C U8C G9A U10A U11G C12G | 1.25
U7C U8C G9A U10A U11G C12A | 1.08
U7C U8C G9A U10A U11G C12U | 1.35
U7C U8C C12U C13U | 1.29
U7C U8C C12U C13A | 1.41
U7C U8C C12U C13G | 1.2
U7C U8A U10C U11C C12A | 1.17
U7C U8A U10C U11C C12U | 1.09
U7C U8A U10C U11C C12G | 1.25
